Test [1] addresses HIV-1 integrase K264A/K266A, recombinant, 6xHis-tagged (HIV-1). The experiment in a line: SEC.
The target of test [2] is HIV-1 integrase R269A/K273A, recombinant, 6xHis-tagged (HIV-1). The experiment in a line: SEC.

Consider “HIV-1 integrase K264A/K266A, recombinant, 6xHis-tagged (enzyme)”, for which the stoichiometry N in test [1] came to 4.
Turning to “HIV-1 integrase R269A/K273A, recombinant, 6xHis-tagged (enzyme)”, the stoichiometry N in test [2] was 4.

These data come from article PMC5003418.
